Here are results for 2 molecules from paper PMC4184033 (Nature structural & molecular biology, 2011).

To fix the notation:
B1: Cdc45 (natural protein, Drosophila melanogaster, UniProt O96989 1-575, looked up)
chain: MFVQDLRNDFYRQLVGKRILIVVNYDIDAICASRILQALFKYDHMLYTVVPIMGVTGLKRAYGEHQGDVKYVVLVNCGGCVDIVELLQPSDDVTFFICDSHRPLDVCNIYSDRQVCILGDASLEENIPAFETIFYDSEGEDEDEDESSDTEQQHDDSGAGESDQEDQAPRSRKLSRLERHEQRILKQRARRQWESERDRIMFEYTQFSYYGRSAALMVFELAWKLSKDNMDLLWWAIVGITEQLLLGKIESGAYTLELEQIQSHVSRLTNKTNDQNTMSASKITFENDLHLVLYRHWPVTESMRYSRYSSCQLKLWTLRGEKRLHELLLEMGLPLVHARQTYGAMDLVLRKEFFSMVERLAEKYDIADIVYGTFTLSYGYRSRYAAADYVYALLAIMESVKKHKTPEDCFLEASDALSRQHKQLLSAGIDQAKLLHAAVFRQVQSSLEARQVHSAGSFFYYVLQEEHAFFSYPYALGLLARFLLRGHVATSRARQASDLPLIASCPLNASEGMCLLVGIVPVREDSPRNFFGKAFEQAAQKSGVALLQDFFEPAVVQLRQSDLTRFLDSLTVLLA
B2: Psf2 (natural protein, Drosophila melanogaster, UniProt Q9VQY9 1-203, looked up)
chain: MDPSIIEFIGEKCMISIIPNFSNEPLHLIYGPVGPFRAGFPVFVPLWMATHLRKQQKCRIVPPEWMDMDILEEIKEEEKRSKFFTKMPCEHYMVVAQLVMSTAPDDVPRCEELRTVIKDIFDIRESKLRTSIDAFIKGEGTYAKLDNLTLLEIHSVRPILPYSLDHIARYQRTATASQRDTSMLSASMAGSSSGPNSNSLFSQ

Common to all, as to assay: negative-stain single-particle EM
In one assay the target is T1, Mcm2 (Drosophila melanogaster, UniProt P49735 1-887).
T1 sequence (looked up): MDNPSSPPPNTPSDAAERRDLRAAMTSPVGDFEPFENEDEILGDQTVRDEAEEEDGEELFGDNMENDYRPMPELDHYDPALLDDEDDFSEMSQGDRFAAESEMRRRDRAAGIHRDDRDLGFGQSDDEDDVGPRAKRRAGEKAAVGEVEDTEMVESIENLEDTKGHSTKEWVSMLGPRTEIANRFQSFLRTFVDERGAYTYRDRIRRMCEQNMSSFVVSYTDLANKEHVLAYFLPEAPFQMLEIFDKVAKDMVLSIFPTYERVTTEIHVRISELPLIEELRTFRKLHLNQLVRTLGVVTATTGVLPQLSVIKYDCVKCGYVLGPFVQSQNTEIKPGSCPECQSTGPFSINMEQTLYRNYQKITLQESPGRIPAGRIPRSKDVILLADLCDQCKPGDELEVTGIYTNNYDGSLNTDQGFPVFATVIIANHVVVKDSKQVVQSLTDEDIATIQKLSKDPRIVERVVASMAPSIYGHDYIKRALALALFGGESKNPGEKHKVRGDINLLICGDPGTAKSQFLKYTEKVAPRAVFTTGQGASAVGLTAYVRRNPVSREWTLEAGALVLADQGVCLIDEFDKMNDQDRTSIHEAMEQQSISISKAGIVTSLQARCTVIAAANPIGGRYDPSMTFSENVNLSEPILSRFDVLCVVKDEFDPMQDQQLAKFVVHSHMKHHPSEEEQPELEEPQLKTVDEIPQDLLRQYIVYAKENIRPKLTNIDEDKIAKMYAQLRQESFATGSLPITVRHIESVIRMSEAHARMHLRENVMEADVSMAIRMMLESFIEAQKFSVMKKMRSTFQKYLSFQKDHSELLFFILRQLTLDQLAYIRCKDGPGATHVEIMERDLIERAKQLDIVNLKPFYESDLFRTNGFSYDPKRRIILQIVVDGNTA

Another assay addresses T2, Mcm5 (Drosophila melanogaster, UniProt Q9VGW6 1-733).
T2 sequence (looked up): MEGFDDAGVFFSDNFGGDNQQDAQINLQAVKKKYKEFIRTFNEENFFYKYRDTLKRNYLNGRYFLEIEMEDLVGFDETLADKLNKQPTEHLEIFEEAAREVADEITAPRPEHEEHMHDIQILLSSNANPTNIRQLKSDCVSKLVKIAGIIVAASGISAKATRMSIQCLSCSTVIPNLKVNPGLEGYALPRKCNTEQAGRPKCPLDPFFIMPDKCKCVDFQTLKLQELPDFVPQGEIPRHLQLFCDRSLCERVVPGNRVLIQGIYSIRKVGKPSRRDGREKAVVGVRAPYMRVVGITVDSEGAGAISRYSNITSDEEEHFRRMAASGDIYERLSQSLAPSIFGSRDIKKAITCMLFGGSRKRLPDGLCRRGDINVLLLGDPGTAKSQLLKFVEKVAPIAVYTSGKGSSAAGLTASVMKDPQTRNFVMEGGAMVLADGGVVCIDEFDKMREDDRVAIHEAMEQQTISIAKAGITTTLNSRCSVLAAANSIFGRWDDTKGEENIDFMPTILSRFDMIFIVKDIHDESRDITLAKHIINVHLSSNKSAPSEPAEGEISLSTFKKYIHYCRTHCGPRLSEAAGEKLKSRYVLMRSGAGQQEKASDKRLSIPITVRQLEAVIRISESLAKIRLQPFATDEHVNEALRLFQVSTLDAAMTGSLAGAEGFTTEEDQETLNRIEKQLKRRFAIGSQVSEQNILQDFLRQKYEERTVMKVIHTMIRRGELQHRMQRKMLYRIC

The assay “Cdc45” deals with B1.

As to B1, the binding result with Mcm2 is recorded as “binds”.
Consider B2, for which the binding result in the assay with Mcm5 and in the assay with Cdc45 was “binds” each time.
